Assay [1] has as its target T1, human CD16A (158F) on transfected CHO cells (cAg_34) (human, UniProt P08637 17-254).
T1 construct: Exact cell-anchored construct not described; also called huCD16A
In words: flow cytometry on huCD16A-transfected CHO cells, anti-human IgG-APC detection. On the procedure: To analyze binding of different antibody constructs to CHO cells transfected with human CD16A (cAg_34), relative to CD16 expression by flow cytometry, 1-2×10⁵ were resuspended in 100 μL FACS buffer (PBS (Invitrogen, cat.: 14190-169) containing 2% heat-inactivated FCS (Invitrogen, cat.: 10270-106), and 0.1% sodium azide (Roth, Karlsruhe, Germany, cat.: A1430.0100)) in round-bottom 96-well microtiter plates. After washing in FACS buffer, cells were incubated in 50 μL FACS buffer without antibodies or with titrated antibodies starting at a concentration of 100 μg/mL followed by ten 5-fold serial dilutions for 30 min on ice in the dark. After washing twice, cells were incubated with APC-conjugated goat anti-human IgG (H+L)-APC (Dianova, cat. 109-136-088) for 30 min on ice in the dark. […] After washing, binding was measured by flow cytometry and mean fluorescence intensities (MFI) of cell samples were calculated and corrected for background staining using control cells stained with secondary antibodies only.
(§1) Equilibrium dissociation constants (KD) of antibody binding were calculated by plotting MFI values and fitting a non-linear regression model for one-site binding to hyperbolic dose-response curves using GraphPad Prism.

Assay [2] concerns the target T1, human CD16A (158F) on transfected CHO …. As to the kind of experiment: flow cytometry on huCD16A-transfected CHO cells (cAg_34), one-site fit of MFI, experiment 2. Here is the method: After washing in FACS buffer, cells were incubated in 50 μL FACS buffer without antibodies or with titrated antibodies starting at a concentration of 100 μg/mL followed by ten 5-fold serial dilutions for 30 min on ice in the dark. After washing twice, cells were incubated with APC-conjugated goat anti-human IgG (H+L)-APC (Dianova, cat. 109-136-088) for 30 min on ice in the dark. […] After washing, binding was measured by flow cytometry and mean fluorescence intensities (MFI) of cell samples were calculated and corrected for background staining using control cells stained with secondary antibodies only.
as §1
For orientation: A flow cytometer gives signals particle by particle.

The target of assay [3] is T2, recombinant murine neonatal Fc receptor (FcRn), biotinylated (murine, UniProt Q61559 22-297, limits assumed, site-directed biotinylation at AviTag).
T2 construct: also called murine FcRn
T2 sequence (looked up): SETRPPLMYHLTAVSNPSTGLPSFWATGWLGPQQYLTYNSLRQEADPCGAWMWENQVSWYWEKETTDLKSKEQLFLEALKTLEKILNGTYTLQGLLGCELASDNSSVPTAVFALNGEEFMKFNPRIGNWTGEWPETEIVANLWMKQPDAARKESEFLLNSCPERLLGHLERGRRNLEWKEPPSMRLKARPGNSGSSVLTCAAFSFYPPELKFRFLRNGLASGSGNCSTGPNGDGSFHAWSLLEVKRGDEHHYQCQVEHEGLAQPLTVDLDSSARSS
As to the kind of experiment: SPR (Biacore), 37 °C, pH 6.0, biotin-captured murine FcRn as ligand, steady-state affinity fit. Here is the method:
(§2) Affinity parameters were evaluated for interaction with human FcRn, cynomolgus FcRn or murine FcRn using a Steady State Binding model (D-F).
In general terms: In SPR one partner is held on a chip, and binding of the other changes the refractive index at the surface.

The target in assay [4] is T3, recombinant cynomolgus neonatal Fc receptor (FcRn), biotinylated (cynomolgus, UniProt Q8SPV9 24-297, limits assumed, site-directed biotinylation at AviTag).
T3 construct: also called cynomolgus FcRn
T3 sequence (Q8SPV9 24-297 limits assumed, form in doubt): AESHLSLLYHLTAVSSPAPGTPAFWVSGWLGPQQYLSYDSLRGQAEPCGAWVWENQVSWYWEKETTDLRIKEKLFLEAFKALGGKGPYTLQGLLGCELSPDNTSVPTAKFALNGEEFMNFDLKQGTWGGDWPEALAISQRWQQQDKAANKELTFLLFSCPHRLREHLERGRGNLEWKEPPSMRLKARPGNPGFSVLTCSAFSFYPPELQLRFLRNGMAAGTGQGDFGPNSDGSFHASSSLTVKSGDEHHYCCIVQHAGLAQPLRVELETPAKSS
As to the kind of experiment: SPR (Biacore), 37 °C, pH 6.0, biotin-captured cynomolgus FcRn as ligand, steady-state affinity fit. Here is the method:
as §2

Assay [5] concerns the target T4, recombinant human FcγRIIC (CD32C), biotinylated (human, UniProt P31995 43-223, limits assumed, site-directed biotinylation at AviTag).
T4 construct: also called human CD32C
T4 sequence (looked up): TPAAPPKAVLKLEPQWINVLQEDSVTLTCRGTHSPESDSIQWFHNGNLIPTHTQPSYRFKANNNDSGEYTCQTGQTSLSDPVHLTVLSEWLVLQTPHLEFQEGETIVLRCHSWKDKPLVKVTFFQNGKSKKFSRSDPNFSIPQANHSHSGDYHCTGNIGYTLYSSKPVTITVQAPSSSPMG
In words: SPR (Biacore), 37 °C, biotin-captured human CD32C as ligand, steady-state plot; left-hand column, no heading on the sheet. On the procedure: FIG. 21: SPR interaction analysis of antibody binding to CD32. […] Affinity parameters were evaluated for interaction with receptors using a Steady State Binding model.

Assay [6] has as its target T5, recombinant murine FcγRIV (CD16-2), biotinylated (murine, UniProt A0A0B4J1G0 21-203, biotinylated (site not stated)).
T5 construct: also called murine CD16-2; mouse CD16-2; not shown: biotinylation or purification tag (AviTag according to our card)
T5 sequence: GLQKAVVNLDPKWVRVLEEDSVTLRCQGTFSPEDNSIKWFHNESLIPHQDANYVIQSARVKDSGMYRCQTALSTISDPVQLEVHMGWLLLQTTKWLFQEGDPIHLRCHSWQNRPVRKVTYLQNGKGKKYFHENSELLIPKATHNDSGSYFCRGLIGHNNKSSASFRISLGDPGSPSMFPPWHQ
As to the kind of experiment: SPR (Biacore), 37 °C, biotin-captured murine CD16-2 as ligand, steady-state plot; left-hand column, no heading on the sheet. On the procedure:
FIG. 20: SPR interaction analysis of antibody binding to CD64 and murine CD16-2. […] Affinity parameters were evaluated for interaction with receptors using a Steady State Binding model.

In general, EC50 (read off the curve) refers to the concentration needed to bring the measured effect to its halfway point. A lower EC50 (read off the curve) goes with a more potent agent. In general, Kd refers to the equilibrium constant for the complex coming apart.

T1 sequence (P08637 17-254 limits assumed): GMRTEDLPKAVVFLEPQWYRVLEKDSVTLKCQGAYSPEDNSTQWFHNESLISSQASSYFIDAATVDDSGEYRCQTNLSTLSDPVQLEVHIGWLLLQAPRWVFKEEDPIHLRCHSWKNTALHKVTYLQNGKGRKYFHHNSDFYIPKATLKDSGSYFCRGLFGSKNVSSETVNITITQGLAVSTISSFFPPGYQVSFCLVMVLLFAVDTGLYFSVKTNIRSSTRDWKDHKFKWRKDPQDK

B1: scFv-IgAb_268 (CD123-1xCD16a1) (bispecific antibody)
heavy: QVQLQQSGAEVKKPGASVKVSCKASGYTFTDYYMKWVKQSHGKSLEWMGDIIPSNGATFYNQKFKGKATLTVDRSTSTAYMELSSLRSEDTAVYYCARSHLLRASWFAYWGQGTLVTVSSASTKGPSVFPLAPSSKSTSGGTAALGCLVKDYFPEPVTVSWNSGALTSGVHTFPAVLQSSGLYSLSSVVTVPSSSLGTQTYICNVNHKPSNTKVDKKVEPKSCDKTHTCPPCPAPEFEGGPSVFLFPPKPKDTLMISRTPEVTCVVVAVSHEDPEVKFNWYVDGVEVHNAKTKPREEQYNSTYRVVSVLTVLHQDWLNGKEYKCKVSNKALPAPIEKTISKAKGQPREPQVYTLPPSREEMTKNQVSLTCLVKGFYPSDIAVEWESNGQPENNYKTTPPVLDSDGSFFLYSKLTVDKSRWQQGNVFSCSVMHEALHNHYTQKSLSLSPGGGGGSGGGGSGGGGSGGGGSGGGGSGGGGSSYELTQPLSVSVALGQTARITCGGNNIGSKSVHWYQQKPGQAPVLVIYQDKKRPSGIPERFSGSNSGNTATLTISRAQAGDEADYYCQVWDDYIVLFGCGTKLTVLGGSGGSGGSGGSGGSGGSGGSQVQLVQSGAEVKKPGASVKVSCKASGYTFTNYYMQWVRQAPGQCLEWMGIINPSGGVTSYAQKFQGRVTMTRDTSTSTVYMELSSLRSEDTAVYYCARGSAYYYDFADYWGQGTLVTVSS
light: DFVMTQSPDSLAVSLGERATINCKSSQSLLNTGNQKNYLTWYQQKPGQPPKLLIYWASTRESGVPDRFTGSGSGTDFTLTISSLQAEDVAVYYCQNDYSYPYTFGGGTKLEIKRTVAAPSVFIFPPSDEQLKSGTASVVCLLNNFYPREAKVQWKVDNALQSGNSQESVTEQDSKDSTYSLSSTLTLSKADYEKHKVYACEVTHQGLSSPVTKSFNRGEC
notes: also called AFM28; CD123xCD16A scFv-IgAb_268
With B1, in assay [1], the “EC50 (read off the curve)” value is approximately 0.008 µM. Besides, the values for the Kd in assay [2], in assay [3] and in assay [4] were 0.0078 µM, 0.072 µM and 0.238 µM, respectively. Moreover, the binding result in assay [5] and in assay [6] was “no binding” each time.

The values are drawn from patent publication US20260070986A1 (AFFIMED, published 2026).
